From patent US9181310B2 (priority 2003, dated 2015) come the findings set out here.

Assay [1] deals with R. solanacearum strain Rsp446. Type of assay: in vivo, Ralstonia solanacearum. Conditions: seeded T1 tobacco, three experiments each, 60 days.
Assay [2] concerns X. oryzae and X. oryzicola. Type of assay: in vivo. Conditions: transgenic rice, pIPG787.

B1: BombBC: Bacteriophage Outer Membrane Breaching protein of Xanthomonas phage P15 (Xp15) ORF BC, 17.9 kD, SEQ ID NO. 17 (protein, listed as Xanthomonas campestris)
chain: MSDQTDTTQTTPAEKAPPKEIIRGRMPIAVVALARFGSQSTTTTKAAADALGTTVGKIDDIRKNRNFAYVTADFKPTEAQKADGIEWLKRHPVGADALIEELQNLPVATAEESAAFEQVRASARGQNAKTAEGEVAQAGGGNRRKKKEKPAEAGEVQNPPAADGDSLLS
For the molecule B1, the “resistance conferred to transgenic tobacco” value in assay [1] is given as “strong resistance”. Moreover, in assay [2], the “resistance to Gram-negative bacterial pathogens” value was “will be resistant”.
